According to paper PMC10657410:

Target: GST-ApCaV2a1 C-terminal fragment 1 with the putative RxLPxxP site removed (Aplysia californica)
Assay: pull-down; GST protein on glutathione beads rotated with His-tag protein eluate overnight at 4 °C; washed 4 x 10 min with PBS; eluted by boiling; SDS-PAGE, Ponceau stain and blot with anti-His antibody

- percent of binding remaining: 26%
Substance: His-SH3-3 domain of Aplysia RIM-binding protein (ApRBP) (domain or fragment)
